Data published in patent US11155586B2, “Cystine knot scaffold platform” (Genentech, Inc., priority 2015, dated 2021).
Positions of bridges follow the written chain, without caps; N, C: chain ends. Non-standard residues stand in square brackets, D forms with d. Residues, ends and D or L forms follow the SMILES beside them. PEG6 = NCCOCCOCCOCCOCCOCCOCCC(=O)O; Pra = C#CC[C@H](N)C(=O)O

Experiments:
hVEGF-A (8-109) = target: T1, hVEGF-A (8-109) (Homo sapiens, UniProt P15692); experiment: SPR binding assay (BIACORE 3000, 37° C.); details: for effect of F8Y mutation on affinity/potency: SPR affinity (Table 37) and cellular IC50 (Table 38), vs variant without F8Y; for kd: Table 37, surface plasmon resonance, VEGF-A
T1 sequence (P15692 34-135 isoform P15692-4): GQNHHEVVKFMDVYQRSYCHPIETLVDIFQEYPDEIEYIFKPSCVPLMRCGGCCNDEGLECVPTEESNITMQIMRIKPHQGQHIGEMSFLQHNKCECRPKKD
Description: Depending on the format of the assay either a streptavidin sensor (SA) or a dextran-coated (CM5) sensor was utilized as described below.
For use with the SA sensor, VEGF-A was first biotinylated (no more than 2 biotin/VEGF-A) by incubating the protein with EZ-link NHS-PEG4-Biotin (Pierce) in a 1:1.5 molar ratio respectively, in PBS for 2 hours on ice. Reaction was then quenched by addition of 10 molar excess of Glycine pH 8.0 and the sample was buffer exchanged into PBS using an Amicon 0.5 mL 3000 MWCO ultra-centrifugal filters (EMD Millipore). The biotinylation state of the protein was verified by LC-MS analysis. Biotinylated VEGF-A was then captured on the surface until a resonance unit (RU) signal of about ˜400. For immobilization of VEGF-A on CM5 sensor, the surface was first activated with a mixture of N-ethyl-N′-(3-dimethylaminopropyl)carbodiimide hydrochloride and N-hydroxysuccinimide (EDC/NHS) according to the supplier instructions. VEGF-A was then diluted into coupling buffer (0.1 M Acetate Buffer, pH 5.0) and injected until the signal reached about ˜400 RU followed by a wash with 1 M ethanolamine pH 8.0 to quench remaining activated sites.
Following the capture step, a series of the peptide concentrations were prepared in HBS-EP buffer with matching DMSO concentrations to 0.1% and injected at a flow rate of […]. The resulting sensorgrams were then analyzed using a 1:1 binding model to obtain kinetic data and affinities using Scrubber 2.0 (BioLogic Software).

hVEGF(8-109) = target: T2, hVEGF(8-109) (Homo sapiens, UniProt P15692); experiment: Spot phage ELISA; assay type: binding
T2 construct: hVEGF(8-109) or BSA were coated on 384-well MAXISORP™ immunoplates
T2 sequence (P15692 214-315): T1 sequence (P15692 34-135 isoform P15692-4)
Description: After four rounds of binding selection, individual phage clones were picked and inoculated into 450 μl 2YT media containing 50 µg/ml Carbenecillin and M13-KO7 helper phage in 96-well blocks, which were grown at 37° C. overnight. The supernatant was analyzed with spot phage ELISA as follows: hVEGF(8-109) or BSA were coated on 384-well MAXISORP™ immunoplates and phage supernatant diluted (1:3) with PBT buffer was added to the wells. The plates were washed and bound phage was detected with anti-M13-HRP followed by TMB substrate. In these assays, phage binding to BSA alone was tested in parallel to assess background binding. Clones whose binding signals for hVEGF-A (8-109) were more than 3 times higher than to BSA (background) were considered positive. Positive clones were subjected to DNA sequence analysis.

[1] = loop 2 variants based on VEGF_CKP9.63 framework, Table 27

Compound | S/N (signal to noise ratio as compared to BSA control) (hVEGF(8-109); Table 27) | ELISA (hVEGF(8-109); [1]) | also measured
CC[C@H](C)[C@@H]1NC(=O)[C@H](CC(N)=O)NC(=O)[C@@H](NC(=O)CN)CSSC[C@@H](C(=O)N[C@H](C(=O)N[C@H]2CSSC[C@@H](C(=O)NCC(=O)O)NC(=O)[C@H](CO)NC(=O)[C@H](CCC(N)=O)NC(=O)[C@H](Cc3ccc(O)cc3)NC(=O)[C@H](Cc3ccc(O)cc3)NC(=O)[C@H](CCC(N)=O)NC2=O)C(C)C)NC(=O)CNC(=O)[C@H](C)NC(=O)[C@H](CC(C)C)NC(=O)[C@@H]2CSSC[C@H](NC(=O)CNC(=O)[C@H](Cc3c[nH]c4ccccc34)NC(=O)[C@H](Cc3ccc(O)cc3)NC(=O)[C@@H]3CCCN3C(=O)[C@H](CC(C)C)NC(=O)[C@H](CCSC)NC1=O)C(=O)NCC(=O)N[C@@H](CCCNC(=N)N)C(=O)N[C@@H](CC(=O)O)C(=O)N[C@@H](Cc1ccccc1)C(=O)N[C@@H](CCC(=O)O)C(=O)N2 [VEGF_CKP9.54.90.F8Y] (H-GCNIMLPYWGCGRDFECLAGCVCQYYQSCG-OH; disulfide 2-21, 11-17, 23-29 (inferred); N-terminus and C-terminus assumed) |  |  | effect of F8Y mutation on affinity/potency (hVEGF-A (8-109)): modest improvement; kd (hVEGF-A (8-109)): 0.27
CC[C@H](C)[C@@H]1NC(=O)[C@H](CC(N)=O)NC(=O)[C@@H](NC(=O)CN)CSSC[C@@H](C(=O)N[C@H](C(=O)N[C@H]2CSSC[C@@H](C(=O)NCC(=O)O)NC(=O)[C@H](CO)NC(=O)[C@H](CCC(N)=O)NC(=O)[C@H](Cc3ccc(O)cc3)NC(=O)[C@H](Cc3ccc(O)cc3)NC(=O)[C@H](CCC(N)=O)NC2=O)C(C)C)NC(=O)CNC(=O)[C@H](C)NC(=O)[C@H](CC(C)C)NC(=O)[C@@H]2CSSC[C@H](NC(=O)CNC(=O)[C@H](Cc3c[nH]c4ccccc34)NC(=O)[C@H](Cc3ccc(O)cc3)NC(=O)[C@@H]3CCCN3C(=O)[C@H](CC(C)C)NC(=O)[C@H](CCSC)NC1=O)C(=O)NCC(=O)N[C@@H](CCC(N)=O)C(=O)N[C@@H](CO)C(=O)N[C@@H](Cc1ccccc1)C(=O)N[C@@H](CCC(=O)O)C(=O)N2 [VEGF_CKP9.54.1.F8Y] (H-GCNIMLPYWGCGQSFECLAGCVCQYYQSCG-OH; disulfide 2-21, 11-17, 23-29 (inferred); N-terminus and C-terminus assumed) |  |  | effect of F8Y mutation on affinity/potency (hVEGF-A (8-109)): modest improvement; kd (hVEGF-A (8-109)): 0.38
GCDVMQPYWGCGQDLTCLAGCVCHWYNSCG [VEGF_CKP9.63.50] | 12.7 | 0.9 | 
GCDVMQPYWGCGVDMTCLAGCVCHWYNSCG [VEGF_CKP9.63.15] | 21.4 | 1.5 | 
CC(C)C[C@@H]1NC(=O)[C@@H]2CSSC[C@@H](C(=O)NCC(=O)O)NC(=O)[C@H](Cc3ccccc3)NC(=O)CNC(=O)[C@H](CC(N)=O)NC(=O)[C@@H]3CCCN3C(=O)CNC(=O)[C@@H]3CSSC[C@H](NC(=O)[C@H](Cc4ccc(O)cc4)NC(=O)[C@H](CCC(N)=O)NC(=O)[C@H](CCCCN)NC(=O)[C@H](Cc4ccccc4)NC(=O)[C@H](CCCNC(=N)N)NC(=O)[C@H]([C@@H](C)O)NC(=O)[C@H]([C@@H](C)O)NC(=O)[C@@H]4CCCN4C(=O)[C@@H](NC(=O)CN)CSSC[C@H](NC(=O)CNC(=O)[C@H](C)NC1=O)C(=O)N[C@@H](C(C)C)C(=O)N3)C(=O)N[C@@H](CCCCN)C(=O)N[C@@H](CCC(N)=O)C(=O)N[C@@H](CC(=O)O)C(=O)N[C@@H](CO)C(=O)N[C@@H](CC(=O)O)C(=O)N2 [VEGF_CKP6] (H-GCPTTRFKQYCKQDSDCLAGCVCGPNGFCG-OH; disulfide 2-21, 11-23, 17-29; N-terminus and C-terminus assumed) |  |  | S/N (signal to noise ratio as compared to BSA control) (hVEGF(8-109); Table 19): 51.9; ELISA (hVEGF(8-109); spot phage ELISA signal, EETI-II-based binders against hVEGF-A, Table 19): 3.5
GCDVMQPYWGCGADLSCLAGCVCHWYNSCG [VEGF_CKP9.63.62] | 25.4 | 1.8 | 
C#CC[C@H](N)C(=O)NCCOCCOCCOCCOCCOCCOCCC(=O)N[C@H]1CSSC[C@@H](C(=O)N[C@H](C(=O)N[C@H]2CSSC[C@@H](C(=O)NCC(=O)O)NC(=O)[C@H](CO)NC(=O)[C@H](CCC(N)=O)NC(=O)[C@H](Cc3ccc(O)cc3)NC(=O)[C@H](Cc3ccc(O)cc3)NC(=O)[C@H](CCC(N)=O)NC2=O)C(C)C)NC(=O)CNC(=O)[C@H](C)NC(=O)[C@H](CC(C)C)NC(=O)[C@@H]2CSSC[C@H](NC(=O)CNC(=O)[C@H](Cc3c[nH]c4ccccc34)NC(=O)[C@H](Cc3ccccc3)NC(=O)[C@@H]3CCCN3C(=O)[C@H](CC(C)C)NC(=O)[C@H](CCSC)NC(=O)[C@H]([C@@H](C)CC)NC(=O)[C@H](CC(N)=O)NC1=O)C(=O)NCC(=O)N[C@@H](CCCNC(=N)N)C(=O)N[C@@H](CC(=O)O)C(=O)N[C@@H](Cc1ccccc1)C(=O)N[C@@H](CCC(=O)O)C(=O)N2 [VEGF_CKP9.54.90-Alkyn] (H-[Pra][PEG6]CNIMLPFWGCGRDFECLAGCVCQYYQSCG-OH; disulfide 3-22, 12-18, 24-30; N-terminus and C-terminus assumed) |  |  | kd (hVEGF-A (8-109)): 0.27
GCDVMQPYWGCGRDLQCLAGCVCHWYNSCG [VEGF_CKP9.63.2] | 15.0 | 2.0 | 
GCDVMQPYWGCGLDEECLAGCVCHWYNSCG [VEGF_CKP9.63.37] | 8.6 | 0.6 | 
GCDVMQPYWGCGNDVSCLAGCVCHWYNSCG [VEGF_CKP9.63.24] | 20.4 | 1.6 | 
GCDVMQPYWGCAGDELCLAGCVCHWYNSCG [VEGF_CKP9.63.30] | 26.0 | 2.0 | 
CC[C@H](C)[C@@H]1NC(=O)[C@H](CC(N)=O)NC(=O)[C@@H](NC(=O)CN)CSSC[C@@H](C(=O)N[C@H](C(=O)N[C@H]2CSSC[C@@H](C(=O)NCC(=O)O)NC(=O)[C@H](CO)NC(=O)[C@H](CCC(N)=O)NC(=O)[C@H](Cc3ccc(O)cc3)NC(=O)[C@H](Cc3ccc(O)cc3)NC(=O)[C@H](CCC(N)=O)NC2=O)C(C)C)NC(=O)CNC(=O)[C@H](C)NC(=O)[C@H](CC(C)C)NC(=O)[C@@H]2CSSC[C@H](NC(=O)CNC(=O)[C@H](Cc3c[nH]c4ccccc34)NC(=O)[C@H](Cc3ccccc3)NC(=O)[C@@H]3CCCN3C(=O)[C@H](CC(C)C)NC(=O)[C@H](CCSC)NC1=O)C(=O)NCC(=O)N[C@@H](CC(C)C)C(=O)N[C@@H](CC(=O)O)C(=O)N[C@@H](Cc1ccc(O)cc1)C(=O)N[C@@H](CC(=O)O)C(=O)N2 [VEGF_CKP9.54.2] (H-GCNIMLPFWGCGLDYDCLAGCVCQYYQSCG-OH; disulfide 2-21, 11-17, 23-29; N-terminus and C-terminus assumed) |  |  | S/N (signal to noise ratio as compared to BSA control) (hVEGF(8-109); Table 26): 26; ELISA (hVEGF(8-109); loop 2 variants based on 9.54 framework, Table 26): 0.1
CC[C@H](C)[C@@H]1NC(=O)[C@H](CCC(N)=O)NC(=O)[C@@H](NC(=O)CN)CSSC[C@@H](C(=O)N[C@H](C(=O)N[C@H]2CSSC[C@@H](C(=O)NCC(=O)O)NC(=O)[C@H](CO)NC(=O)[C@H](CC(N)=O)NC(=O)[C@H](Cc3ccc(O)cc3)NC(=O)[C@H](Cc3ccccc3)NC(=O)[C@H](Cc3c[nH]cn3)NC2=O)C(C)C)NC(=O)CNC(=O)[C@H](C)NC(=O)[C@H](CC(C)C)NC(=O)[C@@H]2CSSC[C@H](NC(=O)CNC(=O)[C@H](Cc3c[nH]c4ccccc34)NC(=O)[C@H](Cc3ccccc3)NC(=O)[C@@H]3CCCN3C(=O)[C@H](CCC(N)=O)NC(=O)[C@H](CO)NC1=O)C(=O)N[C@@H](CCCCN)C(=O)N[C@@H](CCC(N)=O)C(=O)N[C@@H](CC(=O)O)C(=O)N[C@@H](CO)C(=O)N[C@@H](CC(=O)O)C(=O)N2 [VEGF_CKP9.3] (H-GCQISQPFWGCKQDSDCLAGCVCHFYNSCG-OH; disulfide 2-21, 11-17, 23-29 (inferred); N-terminus and C-terminus assumed) |  |  | S/N (signal to noise ratio as compared to BSA control) (hVEGF(8-109); Table 24): 24.5; ELISA (hVEGF(8-109); VEGF_CKP9 Loop1/Loop5 affinity-matured variants, Table 24): 1.6
